Experiments:
PhuS [1] = molecular target: T1, PhuS (Pseudomonas aeruginosa PAO1, UniProt O68880 1-354); experiment: fluorescence anisotropy; apo-PhuS; FA: 20 mM Tris-HCl pH 8.0, 100 mM NaCl, 0.05 mg/ml BSA, 10 nM DNA (Fur: 10 mM bis-Tris borate pH 7.5, 40 mM KCl, 0.1 mM MnSO4, 0.1 mg/ml BSA, 10% glycerol), temperature not stated; EMSA: 100 mM Tris pH 8.0, 500 mM NaCl, 10% glycerol, 10 ng/ml salmon sperm DNA, 37 C, 30 pM DNA; details: protein: recombinant; tags: none; label: 5'-6FAM; blunt
PhuS H212R = PhuS H212R (Pseudomonas aeruginosa PAO1, UniProt O68880 1-354, H212R); experiment: fluorescence anisotropy; apo-PhuS H212R; FA: 20 mM Tris-HCl pH 8.0, 100 mM NaCl, 0.05 mg/ml BSA, 10 nM DNA (Fur: 10 mM bis-Tris borate pH 7.5, 40 mM KCl, 0.1 mM MnSO4, 0.1 mg/ml BSA, 10% glycerol), temperature not stated; EMSA: 100 mM Tris pH 8.0, 500 mM NaCl, 10% glycerol, 10 ng/ml salmon sperm DNA, 37 C, 30 pM DNA; details: protein: recombinant; tags: none; label: 5'-6FAM; blunt
PhuS [2] = molecular target: T1, PhuS; experiment: fluorescence anisotropy; apo-PhuS; much smaller anisotropy change; FA: 20 mM Tris-HCl pH 8.0, 100 mM NaCl, 0.05 mg/ml BSA, 10 nM DNA (Fur: 10 mM bis-Tris borate pH 7.5, 40 mM KCl, 0.1 mM MnSO4, 0.1 mg/ml BSA, 10% glycerol), temperature not stated; EMSA: 100 mM Tris pH 8.0, 500 mM NaCl, 10% glycerol, 10 ng/ml salmon sperm DNA, 37 C, 30 pM DNA; details: protein: recombinant; tags: none; label: 5'-6FAM; blunt
Fur = molecular target: T2, Fur (Pseudomonas aeruginosa, UniProt Q03456 1-134); experiment: fluorescence anisotropy; 0.1 mM MnSO4; bis-Tris borate pH 7.5, 40 mM KCl; FA: 20 mM Tris-HCl pH 8.0, 100 mM NaCl, 0.05 mg/ml BSA, 10 nM DNA (Fur: 10 mM bis-Tris borate pH 7.5, 40 mM KCl, 0.1 mM MnSO4, 0.1 mg/ml BSA, 10% glycerol), temperature not stated; EMSA: 100 mM Tris pH 8.0, 500 mM NaCl, 10% glycerol, 10 ng/ml salmon sperm DNA, 37 C, 30 pM DNA; details: protein: recombinant; tags: GST removed with thrombin (pGEX-2T); chain copies: 2; label: 5'-6FAM; blunt
T2 sequence: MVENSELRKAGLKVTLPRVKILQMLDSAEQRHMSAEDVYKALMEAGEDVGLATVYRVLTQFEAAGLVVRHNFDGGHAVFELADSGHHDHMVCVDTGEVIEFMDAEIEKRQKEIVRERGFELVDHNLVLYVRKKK

B1: prrF1-50 (No Fur) (dsDNA)
DNA 1: ATTCCAGAGGGCTCGCGACTAGCTAGCAGAAAAGTTTGGCGAAAGCGTTT
DNA 2: AAACGCTTTCGCCAAACTTTTCTGCTAGCTAGTCGCGAGCCCTCTGGAAT
Q: Does B1 bind (PhuS [1])?
A: no binding

B2: prrF2-50 (Fur) (dsDNA)
DNA 1: ATGAGAACCGGCTTGACCTGATAATGAGAATAGTTATTATTACACCAACT
DNA 2: AGTTGGTGTAATAATAACTATTCTCATTATCAGGTCAAGCCGGTTCTCAT
Q: Does B2 bind (PhuS [1])?
A: no binding

B3: prrF1-50 (FAM) (dsDNA)
DNA 1: AGCAGAAAAGTTTGGCGAAAGCGTTTGACATGGAAATGAGAATCATTATT
DNA 2: AATAATGATTCTCATTTCCATGTCAAACGCTTTCGCCAAACTTTTCTGCT
Q: What does the source list for B3?
A: Kd (PhuS H212R): 90 ± 30 nM; Kd (PhuS [1]): 64 ± 10 nM

B4: prrF1-30 (dsDNA)
DNA 1: GACATGGAAATGAGAATCATTATTATGTCA
DNA 2: TGACATAATAATGATTCTCATTTCCATGTC
Q: B4 was tested. Which Kd (PhuS [2]) did it give?
A: > 2000 nM

Q: What about the Kd (Fur) of the same binder?
A: 50 ± 10 nM

Source: paper PMC7948967, “The heme-binding protein PhuS transcriptionally regulates the Pseudomonas aeruginosa tandem sRNA prrF1,F2 locus”
